Values of other authors as cited in paper PMC2903477.

Biological target: TrkB (Homo sapiens) (UniProt Q16620)
Chain of UniProt Q16620 (Q16620 32-430): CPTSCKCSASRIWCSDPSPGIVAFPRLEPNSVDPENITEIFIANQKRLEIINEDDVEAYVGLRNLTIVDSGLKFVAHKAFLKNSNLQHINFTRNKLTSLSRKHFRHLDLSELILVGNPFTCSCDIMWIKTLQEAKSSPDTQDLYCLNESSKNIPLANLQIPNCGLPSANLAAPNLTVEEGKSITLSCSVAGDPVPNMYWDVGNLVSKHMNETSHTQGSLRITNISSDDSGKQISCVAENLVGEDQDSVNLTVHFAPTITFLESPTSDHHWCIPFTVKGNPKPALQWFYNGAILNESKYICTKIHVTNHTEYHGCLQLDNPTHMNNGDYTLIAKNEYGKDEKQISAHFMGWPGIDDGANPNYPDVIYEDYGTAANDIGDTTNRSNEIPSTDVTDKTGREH

Kd: 0.1 nM
Substance: BDNF (from UniProt P23560)
